According to PMC7091491:

Columns and labels:
[1] = molecular target: G12-insertion ClpX^ΔN single-chain pseudohexamer (E. coli) (UniProt P0A6H1)
[2] = molecular target: linker-deletion ClpX^ΔN single-chain pseudohexamer (E. coli) (UniProt P0A6H1)
[3] = molecular target: wild-type single-chain ClpX^ΔN pseudohexamer (E. coli) (UniProt P0A6H1)

Work on Arc-st11-ssrA yielded a KM of Arc-st11-ssrA degradation (0.1 μM ClpX, 0.3 μM ClpP) [1] of 4.1 µM, a KM of Arc-st11-ssrA degradation (0.1 μM ClpX, 0.3 μM ClpP); approximate [2] of 20 µM and a KM of Arc-st11-ssrA degradation (0.1 μM ClpX, 0.3 μM ClpP) [3] of 2.5 µM.
